Measurements published in patent US7807387B2, “Biological agent that causes IL-6 receptor release” (Meyer Pharmaceuticals LLC, priority 2003, dated 2010).
Marks after values point to notes of the source that are not given here.

Key:
p55 TNF Receptor = target: T1, p55 TNF Receptor (Homo sapiens, UniProt P19438); test: Cleavage of cell surface p55 TNF receptor on THP-1 cells; type: cell-based; conditions: 45 minutes at 37° C.
T1 construct: endogenous in cells; host or cells: THP-1
T1 sequence (P19438 30-455): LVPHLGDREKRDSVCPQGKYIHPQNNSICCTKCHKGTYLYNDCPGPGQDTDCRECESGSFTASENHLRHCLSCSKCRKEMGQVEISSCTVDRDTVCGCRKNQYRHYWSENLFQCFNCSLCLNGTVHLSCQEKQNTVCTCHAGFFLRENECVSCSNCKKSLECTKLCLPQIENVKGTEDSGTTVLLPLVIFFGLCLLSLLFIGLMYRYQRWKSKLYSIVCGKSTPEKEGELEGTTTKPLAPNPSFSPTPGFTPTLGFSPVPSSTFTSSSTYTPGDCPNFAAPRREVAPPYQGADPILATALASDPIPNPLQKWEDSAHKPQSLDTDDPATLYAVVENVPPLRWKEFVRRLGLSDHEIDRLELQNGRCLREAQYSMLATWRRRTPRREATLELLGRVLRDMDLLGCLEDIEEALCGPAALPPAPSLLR
Experimental: This cell line expresses both the p55 TNF receptor and the p75 TNF receptor. After incubating for 45 minutes at 37° C., the cells were washed, immunostained for cell surface receptor, and counted by flow cytometry.

TNF receptor [1] = test: Cell surface cleavage assay, release of TNF receptor isoforms by enzyme immunoassay; type: cell-based; conditions: 25 μg protein with 2.5×10^6 cells; (treated—untreated)/untreated
Experimental: To determine cell surface cleavage activity, 25 μg of MP8-FL2 was combined with 2.5×10^6 cells. Release of both TNF receptor isoforms was determined by enzyme immunoassay as (treated—untreated)/untreated.

TNF receptor [2] = test: TNF receptor release in vivo after subcutaneous injection; design: species or system Balb/c mice
Experimental: To determine if the enzyme cleaves TNF receptors in vivo, 100,000 FU of purified MP8 was injected subcutaneously as a 500 μL bolus into female Balb/c mice. Control mice were injected with saline. Serum was sampled periodically, and tested for cytokine levels using ELISA kits from R&D System.

[3] = Stability of receptor cleaving activity upon storage (FRET assay); type: physicochemical; conditions: a month of storage at 4° C. or −70° C., purified form
Experimental: The stability of MP8 was determined by storing aliquots of MP8 at 4° C. or −70°. Aliquots were taken out periodically to determine enzyme cleaving activity in the fluorescence resonance energy transfer peptide cleavage assay.

[4] = Clearance of MP8 protein from the circulation by dot-blot analysis; type: in vivo; conditions: mice
[5] = tested on: collagen-induced arthritis; test: Collagen-induced arthritis, treatment from 3 days before collagen; type: in vivo, DBA/1 LacJ mice
Experimental: Collagen-induced arthritis is a standard model for evaluating potential therapeutic agents for rheumatoid arthritis (Courtenay et al., Nature 283:666, 1980; Williams et al., Proc Natl Acad Sci USA 89:9784, 1992; Gerlag et al., J Immunol 165:1652, 2000). Arthritis was induced in 7-9 week old female DBA/1 LacJ mice by immunization with collagen. On day 0, the mice were injected at the base of the tail with 100 μg bovine type II collagen in complete Freund's adjuvant. On day 7, mice were boosted with an intraperitoneal injection of 100 μg collagen. To enhance and synchronize synovitis, the mice were injected subcutaneously on day 14 with 100 μg of lipopolysaccharide (LPS). Joint swelling was monitored in a blinded fashion by measuring the diameter in all 4 paws and both ankles using a constant pressure gauge. Arthritis Index was also determined on the following scale, and summed for all extremities. 0≡normal; 1≡one digit swollen; 2≡more than one digit swollen; 3≡joint distortion; 4≡ankylosis. The arthritis experiments were conducted under contract by Calvert Preclinical Services, Inc., Olyphant Pa.
As is typical in this model, not all animals respond to the collagen challenge.

[6] = tested on: carrageenan-induced paw edema; test: Carrageenan-induced paw edema; type: in vivo, Sprague Dawley rats; conditions: given one hour before carrageenan; paw volume three hours later; MP8 subcutaneously, indomethacin by mouth
Experimental: Based on the standard model (Winter et al., Proc Soc Exp Biol Med 111:544, 1962; Hansra et al., Inflammation 24:141, 2000), the experiment was performed as follows. Male Sprague Dawley rats were randomized by weight into three treatment groups. The animals were administered MP8 or control solution subcutaneously, or indomethacin by mouth. One hour later, they were injected in the left hind paw with a sterile solution of 1% carrageenan suspension in water, in order to induce swelling. Three hours later, the volume of the injected paw was measured by water displacement in a water plethysmograph (mean±SEM; 10 animals per group).
Male Sprague Dawley rats were administered with test protein or indomethacin (anti-inflammatory control), and then challenged in a hind footpad with carrageenan, as in Example 12.

[7] = tested on: Experimental Autoimmune Encephalomyelitis; test: Experimental Autoimmune Encephalomyelitis (EAE); type: in vivo, SJL/J mice; conditions: for Day of Onset (±SEM): p < 0.001; for Peak Clinical Score (±SEM): scale 0-5
Experimental: The EAE model (Brown et al., Lab. Invest. 45:278, 1981) was conducted as follows. Female SJL/J mice (6 weeks old) were randomized into 3 groups of 10. 2 mL of Myelin Proteolipid Peptide (PLP) was emulsified in 3 mL of Complete Freund's Adjuvant containing an additional 20 mg of M. tuberculosis H37Ra. On day 0, mice were immunized subcutaneously in the base of the tail and footpad with a total of 60 μg PLP. They were also given […] pertussis toxin i.p. on days 0 and 2. MP8 or saline control was administered s.c. every day from day −3 to day 20. Progression of the disease was measured up to day 21 on the following scale: 0≡normal; 1≡limp tail or hind limb weakness; 2≡both limp tail and hind limb weakness; 3≡partial hind limb paralysis; 4≡complete hind limb paralysis; 5≡moribund or sacrificed.

[8] = tested on: experimentally induced Asthma; test: Experimentally induced asthma (ovalbumin sensitization and aerosol challenge); type: in vivo, mice; conditions: treatment 1 h before aerosol challenge, 24 h and 48 h afterwards; lavage at 72 h
Experimental: Mice were sensitized on Days 0, 7, and 14 with 10 μg ovalbumin in 1% aluminum hydroxide. On Day 21, the mice were challenged with the allergen in aerosol form (5% wt/vol in saline). Treatment with MP8 or control was administered 1 h before the aerosol challenge, and 24 h and 48 h afterwards. On Day 24 (72 h after the challenge), lungs were ravaged under anesthesia with 2×0.5 mL buffer to recover cells in the alveolar fluid.

[9] = 100,000 FU s.c. every day from day −3 to day 20
[10] = 300,000 FU s.c. every day from day −3 to day 20

B1: MP8: polypeptide having the sequence of SEQ. ID NO:41 (usually with a HIS tag); cytokine receptor releasing protein expressed in E. coli (protein, listed as Homo sapiens)
chain: WIQRIRHEGNSTVYEWRTGTEPSVVERPHLEELPEQVAEDAIDWGDFGVEAVSEGTDSGISAEAAGIDWGIFPESDSKDPGGDGIDWGDDAVALQITVLEAGTQAPEGVARGPDALTLLEYTETRNQFLDELMELEIFLAQRAVELSEEADVLSVSQFQLAPAILQGQTKEKMVTMVSVLEDLIGKLTSLQLQHLFMILASPRYVDRVTEFLQQKLKQSQLLALKKELMVQKQQEALEEQAALEPKLDLLLEKTKELQKLIEADISKRYSGRPVNLMGTSL
modifications: HIS tag
notes: ID NO:41 (usually with a HIS tag); cytokine receptor releasing protein expressed in E. coli
cleavage of p55 TNF receptor on the surface of cells (p55 TNF Receptor): cleaves | cleavage and release of TNF receptor from the cell surface (TNF receptor [1]): cause cleavage and release of TNF receptor, with preference for the R1 (p55) isoform | persistence of the effect after administration (TNF receptor [2]; 100,000 FU subcutaneously): 48 h | persistence of released receptors in the circulation (TNF receptor [2]; other experiments): at least 6 days | loss of peptide cleaving activity on storage [3]: no detectable loss of activity | first clearance half-time from the circulation [4]: ~39 h | effectiveness compared with Enbrel ([5]; 300,000 FU daily): at least as effective as a scaled dose of Enbrel® | animals affected by arthritis ([5]; 300,000 FU daily starting 3 days before first collagen injection, 8 out of 9 controls affected): none of the animals treated with MP8 were affected | joint swelling and arthritis index ([5]; 300,000 FU daily, prophylactic): prevented the animals from showing any measurable signs of the disease | inhibition of edema formation [6]: 62% | Incidence of Disease [7, 9]: 5 out of 7 | Day of Onset (±SEM) [7, 9]: 18.0 ± 0.8 ^a | Peak Clinical Score (±SEM) [7, 9]: 2.4 ± 0.7 | Incidence of Disease [7, 10]: 3 out of 7 | Day of Onset (±SEM) [7, 10]: 18.0 ± 2.5 ^a | Peak Clinical Score (±SEM) ([7]; 300,000 FU s.c. every day from day −3 to day 20, p < 0.01): 1.0 ± 0.5 ^b | emergence of symptoms ([7]; delayed from 12 days): 18 days | weight gain of treated animals ([7]; mouse, in vivo): continued to show normal weight gain | proportion of eosinophils [8]: substantially reduced | white blood cells migrating into the alveolar fluid [8]: reduced the number of the white blood cells migrating into the alveolar fluid
